# Data published in patent publication US20180346592A1 (MOGAM INSTITUTE FOR BIOMEDICAL RESEARCH, published 2018).
# B1: GX102 clone antibody (purified anti-GPC3 antibody) (antibody, V domains shown)
# VH: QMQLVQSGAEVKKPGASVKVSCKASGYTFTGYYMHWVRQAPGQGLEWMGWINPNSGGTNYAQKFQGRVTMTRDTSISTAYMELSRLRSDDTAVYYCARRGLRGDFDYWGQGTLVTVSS
# VL: GQSVLTQPPSASETPGQKVTISCSGSSSNIGTNHVFWYQQLPGTAPKLLIYRNNLRPSGVPDRFSGSKSGTSASLAISGLRSEDEADYYCAAWDDSLSWVFGGGTKLTVLG
# notes: Purified antibody; also called GX102 antibody; GX102 candidate antibody
# B2: clone GS009 (scFv, V domains shown)
# VH: EVQLLESGGGLVQPGGSLRLSCAASGFTFSNYSMSWVRLAPGKGLEWVSVISPSGGNTYYADSVKGRFTISRDNSKNTLYLQMNSLRAEHTAVYYCARYRVKQMLNQRSYSNAMDVWGQGTLVTVSS
# VL: QSVLTQPPSASGTPGQRVTISCTGSSSNIGNNYVSWYQQLPGTAPKLLIYDDSQRPSGVPDRFSGSKSGTSASLAISGLRSEDEADYYCGSWDASLSGYVFGGGTKLTVLG
# notes: scFv library clone tested as culture supernatant
# B3: clone GS001 (scFv, V domains shown)
# VH: EVQLLESGGGLVQPGGSLRLSCAASGFTFSSYSMSWVRQAPGKGLEWVSGISPSGGNKYYADSVKGRFTISRDNSKNTLYLQMNSLRAEDTAVYYCARALLGCKSAYCYYAMDVWGQGTLVTVSS
# VL: QSVLTQPPSASGTPGQRVTISCTGSSSNIGSNAVNWYQQLPGTAPKLLIYADSKRPSGVPDRFSGSKSGTSASLAISGLRSEDEADYYCGSWDSSLSGYVFGGGTKLTVLG
# notes: as for B2
# B4: clone GS005 (scFv, V domains shown)
# VH: EVQLLESGGGLVQPGGSLRLSCAASGFTFSNYAMSWVRQAPGKGLEWVSVISPDSSSKYYADSVKGRFTISRDNSKNTLYLQMNSLRAEDTAVYYCARAAVRRYGPSPYYYYAMDVWGQGTLVTVSS
# VL: QSVLTQPPSASGTPGQRVTISCTGSSSNIGNNYVTWYQQLPGTAPKLLIYADSHRPSGVPDRFSGSKSGTSASLAISGLRSEDEADYYCATWDYSLSGYVFGGGTKLTVLG
# notes: as for B2
# B5: clone GS017 (scFv, V domains shown)
# VH: EVQLLESGGGLVQPGGSLRLSCAASGFTFSGYAMSWVRQAPGKGLEWVSGISPGDGSTYYADSVKGRFTISRDNSKNTLYLQMNSLRAEDTAVYYCARVARMCQGWRCSYADGMDVWGQGTLVTVSS
# VL: QSVLTQPPSASGTPGQRVTISCTGSSSNIGNNSVYWYQQLPGTAPKLLIYSDSHRPSGVPDRFSGSKSGTSASLAISGLRSEDEADYYCGTWDSSLSGYVFGGGTKLTVLG
# notes: as for B2
# B6: clone GS008 (scFv, V domains shown)
# VH: EVQLLESGGGLVQPGGSLRLSCAASGFTFSNYAMSWVRQAPGKGLEWVSVISPDNGSTYYADSVKGRFTISRDNSKNTLYLQMNSLRAEDTAVYYCARARVHCRRDQCYSYGMDVWGQGTLVTVSS
# VL: QSVLTQPPSASGTPGQRVTISCTGSSSNIGSNNVTWYQQLPGTAPKLLIYANSQRPSGVPDRFSGSKSGTSASLAISGLRSEDEADYYCGAWDSSLNGYVFGGGTKLTVLG
# notes: as for B2
# B7: clone GS007 (scFv, V domains shown)
# VH: EVQLLESGGGLVQPGGSLRLSCAASGFTFSNYSMSWVRQAPGKGLEWVSVISHDGRSKYYADSVKGRFAISRDNSKNTLYLQMNSLRAEDTAVYYCAKFRVWKRTNAHSYANAMDVWGQGTLVTVSS
# VL: QSVLTQPPSASGTPGQRATISCTGSSSNIGSNSVSWYQQLPGTAPKLLIYANSNRPSGVPDRFSGSKSGTSASLAISGLRSEDEADYYCGTWDASLSAYVFGGGTKLTVLG
# notes: as for B2
# B8: clone GN337 (scFv, V domains shown)
# VH: EVQLVESGPGLVKPSQTLSLTCTVSGGSVSSGGYHWNWIRQHPGKGLEWIGYIFNSGNTDYNPSLRSRLTISQDTSKNQFSLKLSSVTAADTAVYYCARHRSRLLRWFDYWGQGTMVTVSS
# VL: DVVLTQSPSSLSAFVGDRVTITCQASQDIRKYLNWFQQKPGKAPKLLIYDASTLETGVSSRFSGSGSGTHFNLVISSLEPEDSATYYCQQHDFVPRTFGQGTKLEIKR
# notes: as for B2
# B9: clone GX090 (scFv, V domains shown)
# VH: QVQLVQSGAEVKKPGASVKVSCKASGYTFTSYGISWVRQAPGQGLEWMGWISAYNGNTNYAQKLQGRVTMTTDTSTSTAYMELRSLRSDDTAVYYCARGSSFSGFDPWGQGTLVTVSS
# VL: QSVLTQPPSLSAAPGQKVTISCSGSSSNIGKNHVSWYQQFPGTAPKFLIYDNHRRPSGIPDRFSGSKSGTSATLDITGLQTGDEATYYCGTWDSSLSAVVFGGGTKLTVLG
# notes: as for B2
# B10: clone GS013 (scFv, V domains shown)
# VH: EVQLLESGGGLVQPGGSLRLSCAASGFTFSNYAMSWVRQAPGKGLEWVSSISSGGGSTYYADSVKGRFTISRDNSKNTLYLQMNSLRAEDTAVYYCARKKSQFDYWGQGTLVTVSS
# VL: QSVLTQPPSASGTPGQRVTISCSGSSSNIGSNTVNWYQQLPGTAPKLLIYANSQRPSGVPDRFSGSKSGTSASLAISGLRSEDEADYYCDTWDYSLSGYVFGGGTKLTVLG
# notes: as for B2
# B11: clone GS011 (scFv, V domains shown)
# VH: EVQLLESGGGLVQPGGSLRLSCAASGFTFSNYAMSWVRQAPGKGLEWVSGISPGGSSIYYADSVKGRFTISRDNSKNTLYLQMNSLRAEDTAVYYCARYAVYFLRSHGSYDYGMDVWGQGTLVTVSS
# VL: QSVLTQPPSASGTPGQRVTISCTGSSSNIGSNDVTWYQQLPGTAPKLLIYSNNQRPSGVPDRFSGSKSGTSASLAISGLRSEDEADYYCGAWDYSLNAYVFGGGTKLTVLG
# notes: as for B2
# B12: GX270 clone antibody (purified anti-GPC3 antibody) (antibody, V domains shown)
# VH: QVQLVQSGAEVKKPGASVKVSCKTSGYTFTSSYMHWVRQAPGQGLEWMGIINPNSRGTNYAQKFQGRVTMTSDTSISTAYMELSSLISDDTAVYYCASSSGDYPDYWGQGTLVTVSS
# VL: SYELTQPPSVSVSPGQTARIACSGDALPKHYAYWYQQKSGQAPVLVVYEDKKRPAGIPERFSGSSSGTVATLTISGAQVEDEAHYYCYSTDTSGNHRVFGGGTKLTVLG
# notes: Purified antibody; also called GX270 antibody; GX270 candidate antibody
# B13: clone GX122 (scFv, V domains shown)
# VH: EVQLVESGAEVKKPGASVKVSCKASGYTFTSYYMHWVRQAPGQGLEWMGIINPSGGSTSYAQKFQGRVTMTRDTSTSTVYMELSSLRSEDTAVYYCARDGGSSPDIWGQGTMVTVSS
# VL: SYELTQPPSVSVSPGQTARITCSGDALPKKYAYWYQQKSGQAPVLVIYEDKKRPSEIPERFSGSSSGTMATLTITGAQVDDEADYYCYSIDRSGSRGVFGGGTKLTVLG
# notes: as for B2
# Assays:
# [1] = target: T1, GPC3 on the surface of hepatic cancer cell lines (SK-Hep1-GPC3 transfectant, HepG2, Huh7, Hep3B, SNU398) (human, UniProt P51654 25-554); assay: FACS, HepG2 cells, 1 ug antibody; lower right panel
# T1 construct: Species is not restated for the cells (hepatic cancer cell lines, or SK-Hep1 transfected with pCMV/GPC3); also called glypican 3
# [2] = target: T1, GPC3 on the surface of hepatic cancer …; assay: FACS, SK-Hep1-GPC3 cells, 1 ug antibody; lower right panel
# Procedure: (§1) After detaching SK-Hep1-GPC3 cells by adding a TrypLE Express solution thereto, the detached SK-Hep1-GPC3 cells were put into a 50 mL tube and centrifuged at room temperature and 2000 rpm for 3 minutes to remove a culture medium, followed by washing with PBS once. The resultant was suspended using a FACS buffer, transferred to a round bottom tube, and centrifuged at room temperature and 2000 rpm for 3 minutes. A supernatant was removed, and the resultant was suitably dissolved using the FACS buffer so as to have a concentration of 4×10⁵ ea/mL. Then, a candidate antibody (1 μg) was added thereto at 4° C., and in an […] control group, a human IgG (1m, Sigma) was added instead of the candidate antibody. After 1 hour, the resultant was washed with the FACS buffer two times, a goat anti-human IgG antibody and FITC conjugated were added thereto at an amount of 1 μL per sample and bound thereto at 4° C. for 30 minutes. After collecting cells by centrifugation at 2000 rpm for 3 minutes, the cells were re-suspended by adding a fixation buffer (500 μL), and measured using a FACS calibur (FIG. 5).
# [3] = target: T2, recombinant human GPC3 (Cat. No. 2119-GP-050, R&D systems) purified from HEK293 cells (human, UniProt P51654 25-559); assay: SPR, Biacore T-200, GPC3 immobilised on CM5 chip, antibody flowed 0.078-5 nM
# T2 construct: Bought protein
# Procedure: Quantitative binding capacity (affinity) of GX102 and GX270 clone antibodies, purified anti-GPC3 antibodies, to recombinant human GPC 3 was measured using a Biacore T-200(GE Healthcare, U.S.) biosensor. After immobilizing GPC3 (Cat. No. 2119-GP-050, R&D systems) purified from HEK293 cells onto a CM5 chip (GE Healthcare) to an Rmax of 200 using an amine-carboxyl reaction, the GX102 or GX270 antibody sequentially diluted in a HBS-EP buffer solution (10 mM HEPES, pH7.4, 150 mM NaCl, 3 mM EDTA, 0.005% surfactant P20) was flowed at a flow rate of 30 μL/min in a concentration range of 0.078 nM to 5 nM for an association time of 120 seconds and a dissociation time of 1800 seconds. Dissociation of the antibody bound to GPC3 was induced by flowing 10 mM Glycine-HCl (pH1.5) at a flow rate of 30 μL/min for 30 seconds (Table 3). Affinity was obtained as kinetic rate constants (Kₒₙ and Koff) and an equivalent dissociation constant (KD) using a Biacore T-200 evaluation software (Table 4).
# [4] = target: T1, GPC3 on the surface of hepatic cancer …; assay: FACS, SK-Hep1-GPC3 #9 cells, 1 ug antibody; upper right panel
# Procedure: as §1
# [5] = target: T1, GPC3 on the surface of hepatic cancer …; assay: FACS, HepG2 cells, 1 ug antibody; upper right panel (Synthetic library)
# [6] = target: T1, GPC3 on the surface of hepatic cancer …; assay: FACS, SK-Hep1-GPC3 #9 cells, 1 ug antibody; lower left panel
# Procedure: as §1
# [7] = target: T1, GPC3 on the surface of hepatic cancer …; assay: FACS, HepG2 cells, 1 ug antibody; lower left panel (Human naive library)
Binder,"Mean, FL2-H [4]","Mean, FL2-H [5]",other results
B1,,,"Mean, FL2-H [1]: 18.7; Mean, FL2-H [2]: 317; Kd [3]: 0.0092 nM"
B2,12.3,8.12,
B3,5.32,8.76,
B4,4.98,11,
B5,27.5,12.2,
B6,4.89,8.85,
B7,3.94,11.3,
B8,,,"Mean, FL2-H [6]: 3.81; Mean, FL2-H [7]: 30.8"
B9,,,"Mean, FL2-H [1]: 3.49; Mean, FL2-H [2]: 10.2"
B10,7.43,6.07,
B11,22.9,6.5,
B12,,,"Mean, FL2-H [1]: 14.5; Mean, FL2-H [2]: 174; Kd [3]: 0.07 nM"
B13,,,"Mean, FL2-H [6]: 11.6; Mean, FL2-H [7]: 52.2"
